Among the data in the Human Domainome abundance scans (Beltran et al. 2025) are abundance fitness values, retold here.

± gives the uncertainty stated by the source.

B1: Steroid hormone receptor ERR2, residues 100 to 176; numbered along this chain, O95718 (parent)
chain: KRLCLVCGDIASGYHYGVASCEACKAFFKRTIQGNIEYSCPATNECEITKRRRKSCQACRFMKCLKVGMLKEGVRLD

The variants in the data set derive from B1. In words: abundance fitness (aPCA) (normalised: wild type 0, dead -1); higher = more abundant; growth selection in yeast, the domain comes from the species named. The following applies: Homo sapiens.
In the case of KRLCLVCGDIASGYHYGVASCEACKAFFKRTIQGNIEYSCPMTNECEITKRRRKSCQACRFMKCLKVGMLKEGVRLD [A42M], the abundance fitness is -0.033 ± 0.071.
Under KRLCLVCGDIASGYHYGVASCEACKAFFKRTIQGNIEYSCPCTNECEITKRRRKSCQACRFMKCLKVGMLKEGVRLD [A42C] stands -0.501 ± 0.1; under KRLCLVCGDIASGYHYGVASCEACKAFFKRTIQGNIEYSCPFTNECEITKRRRKSCQACRFMKCLKVGMLKEGVRLD [A42F], -0.209 ± 0.09; under KRLCLVCGDIASGYHYGVASCEACKAFFKRTIQGNIEYSCPITNECEITKRRRKSCQACRFMKCLKVGMLKEGVRLD [A42I], 0.027 ± 0.094.
Under KRLCLVCGDIASGYHYGVASCEACKAFFKRTIQGNIEYSCPSTNECEITKRRRKSCQACRFMKCLKVGMLKEGVRLD [A42S] stands -0.098 ± 0.05; under KRLCLVCGDIASGYHYGVASCEACKAFFKRTIQGNIEYSCPRTNECEITKRRRKSCQACRFMKCLKVGMLKEGVRLD [A42R], -0.024 ± 0.039; under KRLCLVCGDIASGYHYGVASCEACKAFFKRTIQGNIEYSAPATNECEITKRRRKSCQACRFMKCLKVGMLKEGVRLD [C40A], -0.91 ± 0.12.
Under KRLCLVCGDIASGYHYGVASCEACKAFFKRTIQGNIEYSNPATNECEITKRRRKSCQACRFMKCLKVGMLKEGVRLD [C40N] stands -0.586 ± 0.26; under KRLCLVCGDIASGYHYGVASCEACKAFFKRTIQGNIEYSSPATNECEITKRRRKSCQACRFMKCLKVGMLKEGVRLD [C40S], -0.632 ± 0.094.
Consider KRLCLVCGDIASGYHYGVASCEACKAFFKRTIQGNIEYSIPATNECEITKRRRKSCQACRFMKCLKVGMLKEGVRLD [C40I], for which the abundance fitness was -0.443 ± 0.17.
With KRLCLVCGDIASGYHYGVASCEACKAFFKRTIQGNIEYSWPATNECEITKRRRKSCQACRFMKCLKVGMLKEGVRLD [C40W] the figure was -0.94 ± 0.12; with KRLCLVCGDIASGYHYGVASCEACKAFFKRTIQGNIEYSYPATNECEITKRRRKSCQACRFMKCLKVGMLKEGVRLD [C40Y], -0.247 ± 0.19.
For the variant KRLCLVCGDIASGYHYGVASCEACKAFFKRTIQGNIEYSPPATNECEITKRRRKSCQACRFMKCLKVGMLKEGVRLD [C40P], the abundance fitness is -0.684 ± 0.13.
Under KRLCLVCGDIASGYHYGVASCEACKAFFKRTIQGNIEYSKPATNECEITKRRRKSCQACRFMKCLKVGMLKEGVRLD [C40K] stands -0.781 ± 0.17; under KRLCLVCGDIASGYHYGVASCEACKAFFKRTIQGNIEYSMPATNECEITKRRRKSCQACRFMKCLKVGMLKEGVRLD [C40M], -0.742 ± 0.13; under KRLCLVCGDIASGYHYGVASCEACKAFFKRTIQGNIEYSDPATNECEITKRRRKSCQACRFMKCLKVGMLKEGVRLD [C40D], -0.982 ± 0.37.
As to KRLCLVCGDIASGYHYGVASCEACKAFFKRTIQGNIEYSGPATNECEITKRRRKSCQACRFMKCLKVGMLKEGVRLD [C40G], the abundance fitness was -0.711 ± 0.068.
With KRLCLVCGDIASGYHYGVASCEACKAFFKRTIQGNIEYSEPATNECEITKRRRKSCQACRFMKCLKVGMLKEGVRLD [C40E] the figure was -0.726 ± 0.11; with KRLCLVCGDIASGYHYGVASCEACKAFFKRTIQGNIEYSRPATNECEITKRRRKSCQACRFMKCLKVGMLKEGVRLD [C40R], -0.734 ± 0.074; with KRLCLVCGDIASGYHYGVASCEACKAFFKRTIQGNIEYSQPATNECEITKRRRKSCQACRFMKCLKVGMLKEGVRLD [C40Q], -0.604 ± 0.12.
With KRLCLVCGDIASGYHYGVASCEACKAFFKRTIQGNIEYSVPATNECEITKRRRKSCQACRFMKCLKVGMLKEGVRLD [C40V] the figure was -0.688 ± 0.082; with KRLCLVCGDIASGYHYGVASCEACKAFFKRTIQGNIEYSFPATNECEITKRRRKSCQACRFMKCLKVGMLKEGVRLD [C40F], -0.876 ± 0.31; with KRLCLVCGDIASGYHYGVASCEACKAFFKRTIQGNIEYSCPACNECEITKRRRKSCQACRFMKCLKVGMLKEGVRLD [T43C], -0.651 ± 0.11.
As to KRLCLVCGDIASGYHYGVASCEACKAFFKRTIQGNIEYSCPARNECEITKRRRKSCQACRFMKCLKVGMLKEGVRLD [T43R], the abundance fitness was found to be 0.043 ± 0.035.
Under KRLCLVCGDIASGYHYGVASCEACKAFFKRTIQGNIEYSCPAINECEITKRRRKSCQACRFMKCLKVGMLKEGVRLD [T43I] stands -0.065 ± 0.1; under KRLCLVCGDIASGYHYGVASCEACKAFFKRTIQGNIEYSCPAANECEITKRRRKSCQACRFMKCLKVGMLKEGVRLD [T43A], 0.081 ± 0.046; under KRLCLVCGDIASGYHYGVASCEACKAFFKRTIQGNIEYSCPAMNECEITKRRRKSCQACRFMKCLKVGMLKEGVRLD [T43M], 0.03 ± 0.061.
With KRLCLVCGDIASGYHYGVASCEACKAFFKRTIQGNIEYSCPANNECEITKRRRKSCQACRFMKCLKVGMLKEGVRLD [T43N] the figure was -0.085 ± 0.083; with KRLCLVCGDIASGYHYGVASCEACKAFFKRTIQGNIEYSCPAQNECEITKRRRKSCQACRFMKCLKVGMLKEGVRLD [T43Q], -0.175 ± 0.068; with KRLCLVCGDIASGYHYGVASCEACKAFFKRTIQGNIEYSCPAKNECEITKRRRKSCQACRFMKCLKVGMLKEGVRLD [T43K], 0.212 ± 0.051.
With KRLCLVCGDIASGYHYGVASCEACKAFFKRTIQGNIEYSCPAPNECEITKRRRKSCQACRFMKCLKVGMLKEGVRLD [T43P] the figure was -0.393 ± 0.086; with KRLCLVCGDIASGYHYGVASCEACKAFFKRTIQGNIEYSCPALNECEITKRRRKSCQACRFMKCLKVGMLKEGVRLD [T43L], -0.234 ± 0.05; with KRLCLVCGDIASGYHYGVASCEACKAFFKRTIQGNIEYSCPAFNECEITKRRRKSCQACRFMKCLKVGMLKEGVRLD [T43F], -0.558 ± 0.14.
In the case of KRLCLVCGDIASGYHYGVASCEACKAFFKRTIQGNIEYSCPADNECEITKRRRKSCQACRFMKCLKVGMLKEGVRLD [T43D], the abundance fitness is -0.152 ± 0.086.
Under KRLCLVCGDIASGYHYGVASCEACKAFFKRTIQGNIEYSCPAENECEITKRRRKSCQACRFMKCLKVGMLKEGVRLD [T43E] stands 0.042 ± 0.053.
With KRLCLVCGDIASGYHYGVASCEACKAFFKRTIQGNIEYSCPAHNECEITKRRRKSCQACRFMKCLKVGMLKEGVRLD [T43H] the figure was -0.459 ± 0.15.
